Columns and labels:
[1] = target: T1, human GPC3 on SK-HEP-1-huGPC3 cells (human, UniProt P51654 25-554); test: flow cytometry on SK-HEP-1-huGPC3 cells, PE anti-mouse IgG Fc; also: test concentration or dose not given here
T1 construct: whole, on cells

[2] = target: T2, cynomolgus monkey GPC3 on SK-HEP-1-cmGPC3 cells (cynomolgus monkey, UniProt A0A2K5VK50 24-553); test: flow cytometry on SK-HEP-1-cmGPC3 cells, PE anti-mouse IgG Fc; also: test concentration or dose not given here
T2 construct: whole, on cells

[3] = target: T3, mouse GPC3 on SK-HEP-1-muGPC3 cells (mouse, UniProt Q8CFZ4 25-553); test: flow cytometry on SK-HEP-1-muGPC3 cells, PE anti-mouse IgG Fc; also: test concentration or dose not given here
T3 construct: whole, on cells
T3 sequence (Q8CFZ4 25-553 limits assumed): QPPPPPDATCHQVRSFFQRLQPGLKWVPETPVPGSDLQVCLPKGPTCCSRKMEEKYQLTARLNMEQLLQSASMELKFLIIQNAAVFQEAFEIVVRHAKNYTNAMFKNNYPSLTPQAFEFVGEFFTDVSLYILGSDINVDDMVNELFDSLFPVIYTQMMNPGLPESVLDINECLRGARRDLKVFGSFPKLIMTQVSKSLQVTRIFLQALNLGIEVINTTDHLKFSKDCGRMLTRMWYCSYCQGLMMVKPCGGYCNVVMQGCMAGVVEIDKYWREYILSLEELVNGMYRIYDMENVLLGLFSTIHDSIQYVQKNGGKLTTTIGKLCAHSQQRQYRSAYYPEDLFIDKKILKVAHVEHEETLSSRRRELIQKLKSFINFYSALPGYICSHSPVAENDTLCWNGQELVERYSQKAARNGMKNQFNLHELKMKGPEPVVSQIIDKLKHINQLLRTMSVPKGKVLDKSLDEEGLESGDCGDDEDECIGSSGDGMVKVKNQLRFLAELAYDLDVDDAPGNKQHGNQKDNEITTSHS

[4] = target: T4, recombinant human GPC3 (human, UniProt P51654 25-559, limits assumed); test: SPR (Biacore), antibody as ligand, recombinant human GPC3 as analyte, 1:1 Langmuir model
T4 construct: also called hGPC3
Procedure: The binding kinetics of the antibodies to recombinant human GPC3 were measured by the surface plasmon resonance (SPR) (e.g., Biacore). Binding rate (Kₐ) and dissociation rates (Kd) were calculated using a simple one-to-one Langmuir binding model (Biacore Evaluation Software). The equilibrium dissociation constant (KD) is calculated as the ratio Kd/Kₐ.

Positive population, % [1]: 91.3%
Positive population, % [2]: 22.3%
Positive population, % [3]: 83.9%
Kd [4]: 12.6 nM
koff [4]: 0.000465 s⁻¹
kon [4]: 36900 M⁻¹ s⁻¹
B1: LAb19310 (antibody, V domains shown)
VH: EVQLQQSGPELVKPGPSLKISCKASGYSFTVSPMTWVKQSHGKNLEWIGLIHPYNGDTTYNQKFKGKATLTVDKSSSTAYMELLSLTSEDSAVYYCARWGNYYPYAMDYWGQGTSVTVSS
VL: DIVMTQSQKFMSTSVGDRVSITCKASQNVRSTVAWYQQKPGQSPKALIYLTSNRHTGVPDRFTGSGSGTDFTLTISNVQSEDLADYFCLQHWNYPYTFGGGTKLEIK
notes: Mouse monoclonal antibody purified from hybridoma supernatant

— US20230088461A1 (NANJING LEGEND BIOTECH, published 2023)
